Results: PMC10110952

How the values were obtained:
[1] = target: streptokinase (Streptococcus pyogenes) (UniProt P10520); experiment: binding saturation; details: cited from earlier work
[2] = target: PAM, plasminogen-binding group A Streptococcus (GAS) M-protein (S. pyogenes) (UniProt P49054); experiment: SPR; PAM amine-coupled to a CM-5 chip (250 RU); hPg variants injected at 0.175-20 nM (up to 800 nM hPg [D219N]), multicycle kinetics, 180 s association, 300 s dissociation; HBS-EP+ (10 mM Na-Hepes/150 mM NaCl, 3 mM EDTA/0.05% polysorbate-20, pH 7.4), 25°C, Biacore X100; 1:1 Langmuir model
[3] = target: hPg [D^139,413,518N] (human); experiment: SPR; each hPg variant amine-coupled to a CM-5 chip (~1200 RU); SK injected at 0.625-100 nM, multicycle kinetics, 90 s association, 120 s dissociation; HBS-EP+/50 μM NPGB, 25°C, Biacore X100; 1:1 Langmuir model
hPg [D^518N] (human) = experiment: as above
hPg [D^139N] (human) = experiment: as above
[4] = target: wild-type (WT) Glu^1-hPg (human plasminogen) (human); experiment: as above
hPg [D^413N] (human) = experiment: as above
hPg [K^708A] (human) = experiment: as above
hPg [D^219N] (human) = experiment: as above
[5] = target: PAM, plasminogen-binding group A Streptococcus (GAS) M-protein (S. pyogenes) (UniProt P49054)

Sequence of UniProt P49054 (P49054 30-384): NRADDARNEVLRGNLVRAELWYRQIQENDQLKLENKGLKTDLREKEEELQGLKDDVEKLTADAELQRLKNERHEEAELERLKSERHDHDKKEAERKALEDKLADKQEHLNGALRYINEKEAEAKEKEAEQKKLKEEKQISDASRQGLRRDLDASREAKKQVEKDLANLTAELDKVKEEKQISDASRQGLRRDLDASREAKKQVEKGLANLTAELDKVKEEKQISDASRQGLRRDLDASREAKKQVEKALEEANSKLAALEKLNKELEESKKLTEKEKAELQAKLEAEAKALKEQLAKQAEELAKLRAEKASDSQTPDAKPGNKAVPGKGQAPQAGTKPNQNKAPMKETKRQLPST
Sequence of UniProt P10520 (P10520 27-440): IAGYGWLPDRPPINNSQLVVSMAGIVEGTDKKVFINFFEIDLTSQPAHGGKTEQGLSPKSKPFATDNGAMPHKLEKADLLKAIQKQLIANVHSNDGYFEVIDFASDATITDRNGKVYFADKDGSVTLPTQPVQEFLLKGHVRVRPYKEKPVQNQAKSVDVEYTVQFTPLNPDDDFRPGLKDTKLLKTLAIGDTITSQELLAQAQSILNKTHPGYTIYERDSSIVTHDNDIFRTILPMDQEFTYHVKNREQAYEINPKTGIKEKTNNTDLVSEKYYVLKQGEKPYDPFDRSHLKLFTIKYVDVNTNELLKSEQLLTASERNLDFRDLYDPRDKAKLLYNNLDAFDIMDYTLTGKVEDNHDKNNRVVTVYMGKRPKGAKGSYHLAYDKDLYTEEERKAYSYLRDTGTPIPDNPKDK

mini-plasminogen mini-hPg (lacking K1-K4) (from UniProt P00747)
Kd [1]: 0.5 nM

hPg [K^708A] (natural protein)
Kd [2]: 1.2 nM | koff [2]: 0.0012 s⁻¹ | kon [2]: 970000 M⁻¹ s⁻¹

streptokinase (SK) (natural protein)
Kd [3]: 2.1 nM | koff [3]: 0.000449 s⁻¹ | kon [3]: 206000 M⁻¹ s⁻¹ | Kd (hPg [D^518N] (human)): 0.27 nM | koff (hPg [D^518N] (human)): 0.00034 s⁻¹ | kon (hPg [D^518N] (human)): 1.29e+06 M⁻¹ s⁻¹ | Kd (hPg [D^139N] (human)): 0.28 nM | koff (hPg [D^139N] (human)): 0.000302 s⁻¹ | kon (hPg [D^139N] (human)): 1.13e+06 M⁻¹ s⁻¹ | Kd [4]: 0.29 nM | koff [4]: 0.000405 s⁻¹ | kon [4]: 1.39e+06 M⁻¹ s⁻¹ | Kd (hPg [D^413N] (human)): 0.26 nM | koff (hPg [D^413N] (human)): 0.000302 s⁻¹ | kon (hPg [D^413N] (human)): 1.22e+06 M⁻¹ s⁻¹ | Kd (hPg [K^708A] (human)): 0.21 nM | koff (hPg [K^708A] (human)): 0.000282 s⁻¹ | kon (hPg [K^708A] (human)): 1.36e+06 M⁻¹ s⁻¹ | Kd (hPg [D^219N] (human)): 0.3 nM | koff (hPg [D^219N] (human)): 0.000466 s⁻¹ | kon (hPg [D^219N] (human)): 1.55e+06 M⁻¹ s⁻¹

hPg [D^139N] (natural protein)
Kd [2]: 4 nM | koff [2]: 0.0016 s⁻¹ | kon [2]: 410000 M⁻¹ s⁻¹ | rate of SK-mediated activation of hPg to hPm (S2251 hydrolysis), 250 nM PAM against 0 nM PAM [5]: 4 fold

wild-type (WT) Glu^1-hPg (human plasminogen) (natural protein)
Kd [2]: 5.4 nM | koff [2]: 0.0013 s⁻¹ | kon [2]: 240000 M⁻¹ s⁻¹ | rate of SK-mediated activation of hPg to hPm (S2251 hydrolysis), 250 nM PAM against 0 nM PAM [5]: 4 fold

hPg [D^518N] (natural protein)
Kd [2]: 6.7 nM | koff [2]: 0.0024 s⁻¹ | kon [2]: 360000 M⁻¹ s⁻¹

hPg [D^413N] (natural protein)
Kd [2]: 0.7 nM | koff [2]: 0.00094 s⁻¹ | kon [2]: 1.34e+06 M⁻¹ s⁻¹

Glu1-plasminogen (from UniProt P00747)
Kd [1]: 0.5 nM

hPg [D^139,413,518N] (natural protein)
Kd [2]: 0.7 nM | koff [2]: 0.0017 s⁻¹ | kon [2]: 2.51e+06 M⁻¹ s⁻¹
